According to patent US20230117827A1, “COMPOSITION COMPRISING A FLUOROPHORE LABELLED UPAR-TARGETING PEPTIDE CONJUGATE” (FLUOGUIDE A/S, priority 2020, published 2023):

Legend:
Assay type in all cases: physicochemical
[1] = Solubilization of composition 1 judged by absorbance and emission spectra
Protocol: A composition comprising the fluorophore labelled receptor-targeting peptide conjugate ICG-Glu-Glu-AE105 (called composition 1 below) is soluble in DMSO in concentrations up to 20 mg/ml with a peak spectral absorption at 800 nm similar to indocyanine green (ICG) currently used in the clinic for visual assessment of vessels, blood flow and related tissue perfusion, fig. A.
An aqueous formulation of composition 1 of 1.0 mg/ml has been developed according to the present invention, using excipients suitable for pharmaceutical formulation development.
A. Excitation was conducted at 775 nm.
Further Explanation of the Figs. A-D A. Absorbance and emission spectrum of FG001 dissolved in DMSO and PBS at 1.0 mg/ml. Excitation wavelength: 775 nm. Analytical samples for absorbance measurement were further diluted 200-fold and 400-1000-fold for emission spectra. B. Absorbance spectrum of FG001 dissolved in 1) 10 mM sodium phosphate, 45 mg/ml mannitol, pH 7.4, 2) 10 mM sodium phosphate, 45 mg/ml mannitol, 1% Polysorbate 20, pH 7.4 and 3) PBS, 0.2 g/ml HBC. Analytical samples for absorbance measurement were further diluted 200-fold and 400-1000-fold for emission spectra C. […] Excitation wavelength: 775 nm. Analytical samples for absorbance measurement were further diluted 200-fold and 400-1000-fold for emission spectra

[2] = Long term storage stability, visual inspection and pH; conditions: for pH: reconstituted
Protocol: (§1) The long term stability of composition 1 at a concentration of 1.0 mg/ml was evaluated as a lyophilizate in one formulation comprising 10 mM sodium phosphate, 26 mg/ml mannitol, 9.0 mg/ml glycine, 0.025% Polysorbate 20, pH 7.4 Composition 1 was weighed into the formulation buffer and pH was adjusted to 7.4 using sodium hydroxide or hydrochloric acid. The bulk formulation was sterile filtered through suitable sterile filters and filled into 6R vials. The vials were placed with stoppers in a lyophilizer and lyophilized using a standard program. Following lyophilization all vials were capped, visual inspected and stored protected from light at 5° C., 25° C./60% RH or 40° C./75% RH for up to 9 months
(§2) At the selected timepoint, a vial is removed from the stability chamber for visual inspection of the lyophilizate and water content determination. Another vial is reconstituted with water for injection prior to analyzing the corresponding liquid formulation for purity, pH and visual appearance.

[3] = Long term storage stability, water content of lyophilizate by Karl Fisher titration
Protocol: as §1, §2
The water content of the lyophilizate was determined by Karl Fisher titration according to Ph. Eur. 2.5.32.

[4] = Long term storage stability of lyophilizate, purity by RP-HPLC; conditions: for Purity, main peak following storage at 5° C. / Purity, main peak following storage at 25° C./60% RH / Purity, main peak following storage at 40° C./75% RH: 780 nm
Protocol: as §1, §2
RP-HPLC to detect purity of reconstituted composition 1: Mobile phase A was composed of purified water/acetonitrile (80/20 v/v) with 5 mM ammonium acetate and mobile phase B was composed of purified water/acetonitrile (10/90 v/v) with 5 mM ammonium acetate. A Waters XBridge BEH Peptide, 3.5 μm, 130Å, 4.6×150 mm column was used. Flow rate was set to 1.0 mL/min,detection was at a wavelength of 780 nm, the column running temperature was 45° C. The sample cooler temperature was set at 5° C. and the sample injection load was 10 μg.

[5] = storage at 25° C./60% RH, 0 months
[6] = storage at 25° C./60% RH, 1 months
[7] = storage at 25° C./60% RH, 3 months
[8] = storage at 25° C./60% RH, 6 months
[9] = storage at 25° C./60% RH, 9 months
[10] = Example 4 lyophilizate, 0 months
[11] = Example 4 lyophilizate, 1 months
[12] = Example 4 lyophilizate, 3 months
[13] = Example 4 lyophilizate, 6 months
[14] = Example 4 lyophilizate, 9 months

## CC(C)C[C@H](NC(=O)[C@H](Cc1ccc(O)cc1)NC(=O)C(CCCNC(=N)N)NC(=O)C(CO)NC(=O)C(Cc1ccccc1)NC(=O)[C@H](CC1CCCCC1)NC(=O)C(CC(=O)O)NC(=O)C(CCC(=O)O)NC(=O)C(CCC(=O)O)NC(=O)CCCCCN1\C(=C/C=C/C=C/C=C/C2=[N+](CCCCS(=O)(=O)[O-])c3ccc4ccccc4c3C2(C)C)C(C)(C)c2c1ccc1ccccc21)C(=O)N[C@@H](Cc1c[nH]c2ccccc12)C(=O)N[C@@H](CO)C(=O)O (stereo partly drawn) [composition 1, ICG-Glu-Glu-AE105]
[1]; 10 mM sodium phosphate, 45 mg/ml mannitol, pH 7.4
  peak absorption: shifted towards the peak absorption at 800 nm
[1]; DMSO, read-out: soluble in DMSO in concentrations
  solubility: ≤ 20 mg/mL
[1]; in DMSO
  peak spectral absorption: 800 nm
[1]; phosphate buffer saline, 1.0 mg/ml
  spectral absorption in the range from 700 nm to 825 nm: clear double peak
[1]; phosphate buffer saline, 1.0 mg/ml, excitation 775 nm
  emission spectrum: significantly lower fluorescent peak at 800 nm
[1]; tested concentration 1.0 mg/ml
  solubility in phosphate buffer saline: not soluble
[2]; storage at 5° C., 0 months
  pH: 7.4
[2]; storage at 5° C., 1 months
  pH: 7.3
[2]; storage at 5° C., 3 months
  pH: 7.4
[2]; storage at 5° C., 6 months
  pH: 7.3
[2]; storage at 5° C., 9 months
  pH: 7.4
[2]; [5]
  pH: 7.4
[2]; [6]
  pH: 7.3
[2]; [7]
  pH: 7.4
[2]; [8]
  pH: 7.3
[2]; [9]
  pH: 7.4
[2]; up to 9 months storage
  pH, appearance of the lyophilizate and clarity of reconstituted liquid formulation: remains unchaged
[3]; following 9 months storage at 25° C./60% RH
  residual water content: around 2%
[3]; storage at 5° C., 0 months
  Residual water: 1.0%
[3]; storage at 5° C., 1 months
  Residual water: 1.2%
[3]; storage at 5° C., 3 months
  Residual water: 1.8%
[3]; storage at 5° C., 6 months
  Residual water: 1.7%
[3]; storage at 5° C., 9 months
  Residual water: 1.6%
[3]; [5]
  Residual water: 1.0%
[3]; [6]
  Residual water: 1.8%
[3]; [7]
  Residual water: 1.7%
[3]; [8]
  Residual water: 1.7%
[3]; [9]
  Residual water: 1.9%
[4]; Example 4 lyophilizate (mannitol/glycine/0.025% Polysorbate 20), 0 months
  Purity, main peak following storage at 5° C.: 96.6 area %
[4]; [10]
  Purity, main peak following storage at 25° C./60% RH: 96.6 area %
  Purity, main peak following storage at 40° C./75% RH: 96.6 area %
[4]; [11]
  Purity, main peak following storage at 5° C.: 96.2 area %
  Purity, main peak following storage at 25° C./60% RH: 96.2 area %
  Purity, main peak following storage at 40° C./75% RH: 96.0 area %
[4]; [12]
  Purity, main peak following storage at 5° C.: 96.5 area %
  Purity, main peak following storage at 25° C./60% RH: 96.6 area %
  Purity, main peak following storage at 40° C./75% RH: 95.9 area %
[4]; [13]
  Purity, main peak following storage at 5° C.: 96.3 area %
  Purity, main peak following storage at 25° C./60% RH: 95.6 area %
  Purity, main peak following storage at 40° C./75% RH: 93.9 area %
[4]; [14]
  Purity, main peak following storage at 5° C.: 96.2 area %
  Purity, main peak following storage at 25° C./60% RH: 96.2 area %
[4]; selected formulation, storage conditions 5° C. and 25° C./60% RH
  time shown to be stable, judged by the purity determination: up to 9 months
